Reference: patent publication US20020147129A1
Where no end group is shown, it is not given here. [ ]: non-standard residue; d: D form. Nle = CCCC[C@H](N)C(=O)O

Columns and labels:
[1] = biological target: embryonic chicken Ang II receptor (chicken); assay: competition for 125I[Sar1Ile8]Ang II binding, E13 chicken chorioallantoic membranes
[2] = biological target: embryonic chicken AT4 receptor (chicken); assay: competition for [125I]Ang IV binding, E13 chicken chorioallantoic membranes
Chain of embryonic chicken AT4 receptor (chicken) (F1NNE7 entry or part of it): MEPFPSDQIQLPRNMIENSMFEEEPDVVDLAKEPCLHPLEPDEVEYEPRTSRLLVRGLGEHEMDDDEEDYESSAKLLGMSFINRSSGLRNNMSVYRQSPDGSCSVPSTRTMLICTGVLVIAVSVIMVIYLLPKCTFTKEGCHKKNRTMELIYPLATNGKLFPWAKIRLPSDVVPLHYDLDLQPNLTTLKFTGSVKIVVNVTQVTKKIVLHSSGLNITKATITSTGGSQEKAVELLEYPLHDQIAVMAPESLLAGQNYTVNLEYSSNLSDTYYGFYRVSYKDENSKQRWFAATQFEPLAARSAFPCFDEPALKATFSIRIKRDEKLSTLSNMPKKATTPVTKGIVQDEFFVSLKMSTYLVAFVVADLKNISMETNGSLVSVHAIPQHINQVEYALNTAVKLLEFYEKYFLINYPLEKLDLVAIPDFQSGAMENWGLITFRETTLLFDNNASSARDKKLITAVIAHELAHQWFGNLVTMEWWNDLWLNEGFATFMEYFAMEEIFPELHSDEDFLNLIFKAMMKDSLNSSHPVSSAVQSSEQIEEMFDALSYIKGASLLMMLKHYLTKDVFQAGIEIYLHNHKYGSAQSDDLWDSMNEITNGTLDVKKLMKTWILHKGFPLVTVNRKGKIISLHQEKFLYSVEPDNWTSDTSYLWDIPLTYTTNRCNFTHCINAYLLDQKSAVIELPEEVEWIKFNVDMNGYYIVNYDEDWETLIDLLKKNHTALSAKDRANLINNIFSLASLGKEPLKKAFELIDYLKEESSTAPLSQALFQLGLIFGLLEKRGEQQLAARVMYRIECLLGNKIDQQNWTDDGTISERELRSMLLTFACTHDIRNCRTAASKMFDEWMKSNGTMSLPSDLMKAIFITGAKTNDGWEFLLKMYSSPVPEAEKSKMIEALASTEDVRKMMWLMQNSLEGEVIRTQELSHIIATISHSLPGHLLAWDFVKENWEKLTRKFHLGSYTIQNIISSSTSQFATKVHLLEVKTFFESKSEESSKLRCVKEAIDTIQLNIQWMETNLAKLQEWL

Chain of embryonic chicken Ang II receptor (chicken) (P79785 whole entry): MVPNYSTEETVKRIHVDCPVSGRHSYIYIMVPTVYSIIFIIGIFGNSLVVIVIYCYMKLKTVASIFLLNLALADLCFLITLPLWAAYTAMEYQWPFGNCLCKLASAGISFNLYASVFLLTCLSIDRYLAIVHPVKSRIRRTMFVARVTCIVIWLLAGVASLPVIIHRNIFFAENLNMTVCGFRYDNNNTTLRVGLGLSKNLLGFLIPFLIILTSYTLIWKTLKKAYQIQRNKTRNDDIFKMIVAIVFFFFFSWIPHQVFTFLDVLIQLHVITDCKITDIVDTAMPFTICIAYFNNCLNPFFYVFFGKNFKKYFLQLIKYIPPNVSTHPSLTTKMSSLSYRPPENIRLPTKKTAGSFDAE

## [Nle]YIHPF [Nle^1-AIV]
[1]
  IC50: 8 µM
[2]
  IC50: 0.043 µM
